Measured values from paper PMC3989220.
Like-named read-outs stand apart in the source and are kept apart here.

Key:
[1] = biological target: GKRP (Rattus norvegicus) (UniProt Q07071); details: cited from earlier work
[2] = biological target: Glucokinase (GK) cloned from rat hypothalamic tanycyte cultures, recombinant (rat) (UniProt P17712); experiment: enzyme inhibition kinetics (glucose-6-phosphate dehydrogenase-coupled GK activity assay, Segel plot); GK saturation curves with glucose in the presence of 0.1 and 0.2 µM purified GKRP; 200 mM Tris-HCl pH 7.5, 2 mM MgCl2, 1 mM DTT, 1 mM ATP, 0.5 mM NADP+, 37°C, 5 min; Ki from Segel's graph for an allosteric modulator of a cooperative enzyme
[3] = biological target: Glucokinase (GK) cloned from rat hypothalamic tanycyte cultures, recombinant (rat) (UniProt P17712)
[4] = biological target: Glucokinase (GK) cloned from rat hypothalamic tanycyte cultures, recombinant (rat) (UniProt P17712); experiment: enzyme inhibition kinetics (glucose-6-phosphate dehydrogenase-coupled GK activity assay, Segel plot); GK saturation curves with glucose in the presence of 0.1 and 0.2 µM purified GKRP; 200 mM Tris-HCl pH 7.5, 2 mM MgCl2, 1 mM DTT, 1 mM ATP, 0.5 mM NADP+, 37°C, 5 min; Ki from Segel's graph for an allosteric modulator of a cooperative enzyme; remark: listed apart in the source

Sequence of UniProt Q07071 (Q07071 whole entry): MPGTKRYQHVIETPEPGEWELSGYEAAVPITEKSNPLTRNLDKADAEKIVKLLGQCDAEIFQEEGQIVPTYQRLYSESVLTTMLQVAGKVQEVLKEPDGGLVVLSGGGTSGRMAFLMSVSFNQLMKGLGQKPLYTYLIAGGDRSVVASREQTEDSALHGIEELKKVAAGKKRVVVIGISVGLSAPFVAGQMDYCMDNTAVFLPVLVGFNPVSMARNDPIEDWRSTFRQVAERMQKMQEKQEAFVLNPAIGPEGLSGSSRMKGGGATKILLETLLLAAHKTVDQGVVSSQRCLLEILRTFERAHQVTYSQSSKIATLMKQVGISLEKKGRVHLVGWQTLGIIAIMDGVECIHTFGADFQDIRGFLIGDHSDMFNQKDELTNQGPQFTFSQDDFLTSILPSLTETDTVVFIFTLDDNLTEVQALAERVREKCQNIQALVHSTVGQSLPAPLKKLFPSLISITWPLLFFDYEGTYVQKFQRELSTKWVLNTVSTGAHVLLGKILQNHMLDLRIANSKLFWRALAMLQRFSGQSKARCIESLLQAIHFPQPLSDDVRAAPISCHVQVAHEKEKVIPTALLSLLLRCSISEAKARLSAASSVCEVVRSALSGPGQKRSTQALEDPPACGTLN

| Ki [2] | GK activity (glucose-6-phosphate dehydrogenase-coupled assay) at 5 min with 10 mM glucose and 0.05-0.25 µM GKRP; IC50 by nonlinear extrapolation [3] | Ki [4] | Substance | Ki [1] |
| --- | --- | --- | --- | --- |
|  |  |  | Glucokinase (from UniProt P17712) | 1 µM |
| 210 µM | 280 µM | 0.21 µM | Glucokinase regulatory protein (GKRP) cloned from rat hypothalamic tanycyte cultures, recombinant (from UniProt Q07071 1-627) (natural protein) |  |
